Residue numbers refer to the chain shown, from its start. Numbers in names are those of the source.

We go through 4 molecules from US20220017622A1 (Pfizer, published 2022).

For assay [1], the target named is T1, human B7-H4 extracellular domain (human, UniProt Q7Z7D3 29-258).
T1 construct: For SPR it says only human B7-H4 ECD; also called Hu B7-H4 ECD; huB7-H4 ECD
T1 sequence: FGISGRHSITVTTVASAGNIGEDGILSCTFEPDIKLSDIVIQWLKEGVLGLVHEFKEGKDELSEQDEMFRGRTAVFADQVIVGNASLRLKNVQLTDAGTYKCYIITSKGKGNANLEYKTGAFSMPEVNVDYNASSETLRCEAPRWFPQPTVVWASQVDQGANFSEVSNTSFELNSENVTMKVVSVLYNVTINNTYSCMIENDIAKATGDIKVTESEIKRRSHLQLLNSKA
Description: competition ELISA on coated huB7-H4 ECD; competitor biotinylated 0052 (by series, not given); first of the four IC50 [nM] columns; competitor not given.

The target of assay [2] is T1, human B7-H4 extracellular domain. The assay is described as follows: competition ELISA on coated huB7-H4 ECD; competitor biotinylated 0052 (by series, not given); second value of the fourth IC50 column.
Assay [3] has the same target. Description: SPR Biacore 8K 25 C; mAb captured on anti-human Fc, huB7-H4 ECD analyte, 1:1 fit. (Surface plasmon resonance follows binding to a sensor surface in real time, without labels.)
Assay [4] has as its target T2, human CD3 on primary human T cells (human, UniProt P07766 23-207; P04234 22-171).
T2 construct: whole, on cells; On cells the whole CD3/TCR complex is present
Description: flow cytometry on primary human T cells, 37 C. (In flow cytometry, cells or beads pass a laser one at a time.)

The target in assay [5] is T3, cynomolgus CD3 on cells from cynomolgus PBMCs (cynomolgus, UniProt Q95LI5 22-198; Q95LI8 22-171).
T3 construct: whole, on cells; also called Cyno PBMC
T3 sequence (Q95LI5 22-198, chain 1 of 2): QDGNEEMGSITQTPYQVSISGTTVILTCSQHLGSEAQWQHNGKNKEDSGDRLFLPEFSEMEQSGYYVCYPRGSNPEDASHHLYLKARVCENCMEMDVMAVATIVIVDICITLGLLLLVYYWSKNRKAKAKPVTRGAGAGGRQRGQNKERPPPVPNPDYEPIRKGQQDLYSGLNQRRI
T3 sequence (Q95LI8 22-171, chain 2 of 2): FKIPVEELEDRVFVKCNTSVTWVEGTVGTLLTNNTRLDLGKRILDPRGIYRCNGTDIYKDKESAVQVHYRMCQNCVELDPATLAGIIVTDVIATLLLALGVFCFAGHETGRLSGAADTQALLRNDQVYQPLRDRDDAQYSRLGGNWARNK
The assay is described as follows: flow cytometry on cyno PBMC, 37 C.

For assay [6], the target named is T4, human CD3 (delta/epsilon heterodimer) (human, UniProt P07766 23-126; P04234 22-105).
T4 construct: captured on an anti-His chip, so it carries a His tag; also called huCD3
T4 sequence (P07766 23-126, stated change not applied, chain 1 of 2): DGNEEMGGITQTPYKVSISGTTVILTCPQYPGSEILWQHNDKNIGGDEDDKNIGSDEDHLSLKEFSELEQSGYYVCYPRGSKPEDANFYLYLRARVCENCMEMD
T4 sequence (P04234 22-105, stated change not applied, chain 2 of 2): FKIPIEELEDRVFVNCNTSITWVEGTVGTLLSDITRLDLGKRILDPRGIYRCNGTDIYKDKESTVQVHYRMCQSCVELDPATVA
The assay is described as follows: SPR 37 C; CD3 delta/epsilon on anti-His chip, bispecific (transient expi293) analyte.

Assay [7] deals with T5, cyno CD3 (delta/epsilon heterodimer) (cyno, UniProt Q95LI5 22-117; Q95LI8 22-105).
T5 construct: also called cyCD3
T5 sequence (Q95LI5 22-117, stated change not applied, chain 1 of 2): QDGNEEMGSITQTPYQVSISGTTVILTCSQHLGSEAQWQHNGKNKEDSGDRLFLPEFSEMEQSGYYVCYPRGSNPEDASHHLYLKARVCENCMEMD
T5 sequence (Q95LI8 22-105, stated change not applied, chain 2 of 2): as the sequence (P04234 22-105, stated change not applied, chain 2 of 2) above, with I5V, N15K, I20V, S32T, D33N, I34N, T64A, S74N, V83L counted along it
The description is as above.

Assay [8] has as its target T4, human CD3 (delta/epsilon heterodimer). The assay is described as follows: SPR 37 C; CD3 delta/epsilon on anti-His chip, bispecific (stable CHO) analyte.
Assay [9] has as its target T5, cyno CD3 (delta/epsilon heterodimer). Described as above.
In assay [10] the target is T4, human CD3 (delta/epsilon heterodimer). Description: SPR 37 C; CD3 delta/epsilon on anti-His chip, bispecific analyte.
The target of assay [11] is T5, cyno CD3 (delta/epsilon heterodimer). Described as above.
In the next assay the target is T6, human B7-H4 on cells (human, UniProt Q7Z7D3 25-282).
T6 sequence (looked up): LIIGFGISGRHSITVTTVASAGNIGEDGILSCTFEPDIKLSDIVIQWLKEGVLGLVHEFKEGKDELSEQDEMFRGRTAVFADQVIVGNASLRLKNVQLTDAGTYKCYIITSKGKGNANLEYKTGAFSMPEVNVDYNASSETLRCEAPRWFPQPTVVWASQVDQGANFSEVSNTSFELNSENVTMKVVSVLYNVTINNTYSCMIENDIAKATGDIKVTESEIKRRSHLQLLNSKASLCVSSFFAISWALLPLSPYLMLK
The assay is described as follows: cell-based or functional assay.

The target of assay [12] is T7, human B7-H4 extracellular domain (human, UniProt Q7Z7D3 29-258).
T7 construct: Soluble ECD used as SPR analyte; also called huB7-H4 ECD; huB7-H4
T7 sequence: T1 sequence
The assay is described as follows: SPR 37 C; bispecific (IgG1 scaffold) on anti-hFc chip, ECD analyte.

Assay [13] deals with T4, human CD3 (delta/epsilon heterodimer). Description: SPR 37 C; CD3 delta/epsilon on anti-His chip, bispecific (IgG1 scaffold) analyte.

T2 sequence (P07766 23-207, chain 1 of 2): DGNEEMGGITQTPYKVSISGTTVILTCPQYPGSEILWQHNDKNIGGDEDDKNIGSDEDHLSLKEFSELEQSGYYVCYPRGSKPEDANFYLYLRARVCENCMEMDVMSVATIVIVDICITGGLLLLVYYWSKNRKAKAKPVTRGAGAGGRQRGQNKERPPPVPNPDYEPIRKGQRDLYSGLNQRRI
T2 sequence (P04234 22-171, chain 2 of 2): as the sequence (Q95LI8 22-171, chain 2 of 2) above, with V5I, K15N, V20I, T32S, N33D, N34I, A64T, N74S, L83V, R141H counted along it

B1: B7-H4 antibody 0047 (antibody, human IgG1, kappa, V domains shown)
VH: QVQLQQWGAGLLKPSETLPLTCAVYGGSFSGYYWNWIRQPPGKGLEWIGEINHSGSATYNPSLKSRVTISVDTSKNHFSLKLSSVTAADTAVYFCARGLYNWNVDHWGQGTLVTVSS
VL: DIQMTQSPSSLSASVGDRVTITCRASQGIRNDLGWYQQKPGKAPKRLIYAASSLQSGVPSRFSGSGSGTEFTLTISSLQPEDFATYYCLQHNSYPRTFGGGTKVEIKR
notes: also called 7H7
Molecule B1 had a half-maximal inhibitory concentration (IC50) in [1] of 4.8 nM. In assay [2], this molecule registered a 50% inhibitory concentration (IC50) of 1 nM. In assay [3], this molecule had a Kd of 3.79 nM, a koff of 0.000635 s⁻¹ and a kon of 168000 M⁻¹ s⁻¹.

B2: B7-H4xCD3 bispecific antibody 1167 (bispecific antibody)
heavy 1: EVQLLESGGGLVQPGGSLRLSCAASGFTFSSYAMSWVRQAPGKGLEWVSAISGGGGSTYYADSVKGRFTISRDNSKNTLYLQMNSLRAEDTAVYYCARDIQWYGESTLFDYWGQGTLVTVSSASTKGPSVFPLAPCSRSTSESTAALGCLVKDYFPEPVTVSWNSGALTSGVHTFPAVLQSSGLYSLSSVVTVPSSNFGTQTYTCNVDHKPSNTKVDKTVERKCEVECPECPAPPVAGPSVFLFPPKPKDTLMISRTPEVTCVVVAVSHEDPEVQFNWYVDGVEVHNAKTKPREEQFNSTFRVVSVLTVVHQDWLNGKEYKCKVSNKGLPSSIEKTISKTKGQPREPQVYTLPPSREEMTKNQVSLTCEVKGFYPSDIAVEWESNGQPENNYKTTPPMLDSDGSFFLYSKLTVDKSRWQQGNVFSCSVMHEALHNHYTQKSLSLSPGK
light 1: DIQMTQSPSSLSASVGDRVTITCRASQSTRSHLAWYQQKPGKAPKLLIYKASSLEGGVPSRFSGSGSGTDFTLTISSLQPEDFATYYCQQYGSYSRTFGQGTKVEIKRTVAAPSVFIFPPSDEQLKSGTASVVCLLNNFYPREAKVQWKVDNALQSGNSQESVTEQDSKDSTYSLSSTLTLSKADYEKHKVYACEVTHQGLSSPVTKSFNRGEC
heavy 2: EVQLVESGGGLVQPGGSLRLSCAASGFTFSDYYMTWVRQAPGKGLEWVAFIRNQARGYTSDHNPSVKGRFTISRDNAKNSLYLQMNSLRAEDTAVYYCARDRPSYYVLDYWGQGTTVTVSSASTKGPSVFPLAPCSRSTSESTAALGCLVKDYFPEPVTVSWNSGALTSGVHTFPAVLQSSGLYSLSSVVTVPSSNFGTQTYTCNVDHKPSNTKVDKTVERKCRVRCPRCPAPPVAGPSVFLFPPKPKDTLMISRTPEVTCVVVAVSHEDPEVQFNWYVDGVEVHNAKTKPREEQFNSTFRVVSVLTVVHQDWLNGKEYKCKVSNKGLPSSIEKTISKTKGQPREPQVYTLPPSREEMTKNQVSLTCLVKGFYPSDIAVEWESNGQPENNYKTTPPMLDSDGSFFLYSRLTVDKSRWQQGNVFSCSVMHEALHNHYTQKSLSLSPGK
light 2: DIQMTQSPSSLSASVGDRVTITCTSSQSLFNVRSQKNYLAWYQQKPGKAPKLLIYWASTRESGVPSRFSGSGSGTDFTLTISSLQPEDFATYYCKQSYDLFTFGGGTKVEIKRTVAAPSVFIFPPSDEQLKSGTASVVCLLNNFYPREAKVQWKVDNALQSGNSQESVTEQDSKDSTYSLSSTLTLSKADYEKHKVYACEVTHQGLSSPVTKSFNRGEC
notes: Chains 1-2: B7-H4 arm; chains 3-4: CD3 arm; Full-length chains; IgG2 dA D265A EEE/RRR
For the molecule B2, the 50% effective concentration (EC50) is 64 nM in assay [4] and 46 nM in assay [5]. Besides, the equilibrium dissociation constant (Kd) in assay [6] is 62.5 nM; in [7] it was 70.8 nM; in assay [8], 49.8 nM; in assay [9], 58.8 nM; in [10], 63.5 nM; in [11], 66.8 nM. Further, the off-rate (koff) in [6] was 0.0309 s⁻¹; in assay [7], 0.0317 s⁻¹; in assay [8], 0.0317 s⁻¹; in [9] it was 0.0305 s⁻¹; in [10], about 0.0337 s⁻¹; in [11], about 0.0338 s⁻¹. Moreover, the kon in assay [6] turned out to be 499000 M⁻¹ s⁻¹; in assay [7] it was 449000 M⁻¹ s⁻¹; in assay [8], 638000 M⁻¹ s⁻¹; in assay [9], 519000 M⁻¹ s⁻¹; in [10], 531000 M⁻¹ s⁻¹; in assay [11], 506000 M⁻¹ s⁻¹.

B3: B7-H4xCD3 bispecific antibody 0089 (bispecific antibody, IgG1)
heavy 1: QVQLQQWGAGLLKPSETLSLTCAVYGGSFSGYYWNWIRQPPGKGLEWIGEINHSGSTKYNPSLKSRVTISGDTSKNQFSLKLNSVTAADTAVYYCVRGLYNWNVDSWGQGTLVTVSSASTKGPSVFPLAPSSKSTSGGTAALGCLVKDYFPEPVTVSWNSGALTSGVHTFPAVLQSSGLYSLSSVVTVPSSSLGTQTYICNVNHKPSNTKVDKKVEPKSCEKTHTCPECPAPEAAGAPSVFLFPPKPKDTLMISRTPEVTCVVVDVSHEDPEVKFNWYVDGVEVHNAKTKPREEQYNSTYRVVSVLTVLHQDWLNGKEYKCKVSNKALPAPIEKTISKAKGQPREPQVYTLPPSREEMTKNQVSLTCEVKGFYPSDIAVEWESNGQPENNYKTTPPVLDSDGSFFLYSKLTVDKSRWQQGNVFSCSVMHEALHNHYTQKSLSLSPG
light 1: DIQMTQSPSSLSASVGDRVTITCRASQGIRNDLGWYQQKPGKAPKRLIYVASSLQSGVPSRFSGSGSGTEFTLTISSLQPEDFATYYCLQHNSYPYTFGQGTKLEIKRTVAAPSVFIFPPSDEQLKSGTASVVCLLNNFYPREAKVQWKVDNALQSGNSQESVTEQDSKDSTYSLSSTLTLSKADYEKHKVYACEVTHQGLSSPVTKSFNRGEC
heavy 2: EVQLVESGGGLVQPGGSLRLSCAASGFTFSDYYMTWVRQAPGKGLEWVAFIRNQARGYTSDHNPSVKGRFTISRDNAKNSLYLQMNSLRAEDTAVYYCARDRPSYYVLDYWGQGTTVTVSSASTKGPSVFPLAPSSKSTSGGTAALGCLVKDYFPEPVTVSWNSGALTSGVHTFPAVLQSSGLYSLSSVVTVPSSSLGTQTYICNVNHKPSNTKVDKKVEPKSCRKTHTCPRCPAPEAAGAPSVFLFPPKPKDTLMISRTPEVTCVVVDVSHEDPEVKFNWYVDGVEVHNAKTKPREEQYNSTYRVVSVLTVLHQDWLNGKEYKCKVSNKALPAPIEKTISKAKGQPREPQVYTLPPSREEMTKNQVSLTCLVKGFYPSDIAVEWESNGQPENNYKTTPPVLDSDGSFFLYSRLTVDKSRWQQGNVFSCSVMHEALHNHYTQKSLSLSPG
light 2: B2 light 2
notes: Chains 1-2: B7-H4 arm; chains 3-4: CD3 arm; IgG1 EEE/RRR scaffold
On to B3, for which, in the assay with human B7-H4 on cells, the “T cell mediated tumor cell killing EC50, HCC1954-Luc” value worked out at 75 nM and the “T cell mediated tumor cell killing, MDA-MB-468” value was 45. Also, in assay [12], the affinity, expressed as Kd, was 22.3 nM; the koff was determined as 0.00588 s⁻¹; the on-rate constant (kon) turned out to be 264000 M⁻¹ s⁻¹. In assay [13], this molecule registered a dissociation constant Kd of 40 nM, an off-rate (koff) of 0.026 s⁻¹ and a kon of 653000 M⁻¹ s⁻¹.

B4: B7-H4xCD3 bispecific antibody 1156 (bispecific antibody, IgG2)
heavy 1: EVQLVESGGGLVQPGGSLRLSCAVSGGSFSGYYWNWVRQAPGKGLEWIGEINHSGSATYNPSLKSRVTISVDTAKNSLYLQMNSLRAEDTAVYYCARGLYNWNVDHWGQGTLVTVSSASTKGPSVFPLAPCSRSTSESTAALGCLVKDYFPEPVTVSWNSGALTSGVHTFPAVLQSSGLYSLSSVVTVPSSNFGTQTYTCNVDHKPSNTKVDKTVERKCEVECPECPAPPVAGPSVFLFPPKPKDTLMISRTPEVTCVVVAVSHEDPEVQFNWYVDGVEVHNAKTKPREEQFNSTFRVVSVLTVVHQDWLNGKEYKCKVSNKGLPSSIEKTISKTKGQPREPQVYTLPPSREEMTKNQVSLTCEVKGFYPSDIAVEWESNGQPENNYKTTPPMLDSDGSFFLYSKLTVDKSRWQQGNVFSCSVMHEALHNHYTQKSLSLSPGK
light 1: B3 light 1 with V50A, E70D, S93A, Y96R, Q100G, L104V
heavy 2: B2 heavy 2
light 2: B2 light 2
notes: as for B2
Consider B4, for which the concentration giving a half-maximal response (EC50) in [4] stood at 44.8 nM; in [5], 27 nM. The results for the Kd in assay [10] and in assay [11] were 62.4 nM and 68.8 nM, respectively. Also, the values for the dissociation rate constant (koff) in assay [10] and in [11] were about 0.0339 s⁻¹ and about 0.0341 s⁻¹, respectively. Moreover, the kon in assay [10] worked out at 543000 M⁻¹ s⁻¹; in [11], 496000 M⁻¹ s⁻¹.

A word on the IC50: it is the point on the concentration scale where inhibition reaches its midpoint. As a reminder, the Kd is the equilibrium constant for the complex coming apart. Read a low Kd as higher affinity. For orientation: koff means the rate constant with which the complex falls apart. A low value points to slow dissociation. One may read the kon as a measure of how fast the partners come together. Low values mean slow association, high ones fast association. The term EC50 denotes the concentration giving half of the maximal effect.
